According to patent US8889621B2, “Inhibiting binding of FGF23 to the binary FGFR-Klotho complex for the treatment of hypophosphatemia” (New York University, priority 2009, dated 2014):
Entries after “also recorded” stand apart in the source; their conditions may differ. One block for each molecule: values may come before it.

Tests used:
[1] = molecular target: T1, binary FGFR1c-Klotho complex (UniProt O35082+P11362); assay: SPR competition: FGFR1c-Klotho binding to immobilized FGF23^28-251; design: species or system human FGFR1c, murine Klotho; conditions: FGF21^168-209 at molar ratios of 6:1 and 10:1
T1 construct: The ectodomain of murine Klotho (A35 to K982) was purified from culture media; FLAG (C); made in house; host or cells: E. coli (FGFR1c, FGF23); HEK293 (Klotho ectodomain)
T1 sequence (P11362 142-365): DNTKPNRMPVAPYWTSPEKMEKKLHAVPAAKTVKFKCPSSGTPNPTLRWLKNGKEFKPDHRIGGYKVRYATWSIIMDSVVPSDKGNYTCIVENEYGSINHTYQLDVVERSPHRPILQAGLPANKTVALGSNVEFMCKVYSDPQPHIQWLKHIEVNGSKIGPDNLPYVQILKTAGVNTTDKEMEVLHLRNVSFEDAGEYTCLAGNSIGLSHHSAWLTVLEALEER
T1 sequence (O35082 35-982): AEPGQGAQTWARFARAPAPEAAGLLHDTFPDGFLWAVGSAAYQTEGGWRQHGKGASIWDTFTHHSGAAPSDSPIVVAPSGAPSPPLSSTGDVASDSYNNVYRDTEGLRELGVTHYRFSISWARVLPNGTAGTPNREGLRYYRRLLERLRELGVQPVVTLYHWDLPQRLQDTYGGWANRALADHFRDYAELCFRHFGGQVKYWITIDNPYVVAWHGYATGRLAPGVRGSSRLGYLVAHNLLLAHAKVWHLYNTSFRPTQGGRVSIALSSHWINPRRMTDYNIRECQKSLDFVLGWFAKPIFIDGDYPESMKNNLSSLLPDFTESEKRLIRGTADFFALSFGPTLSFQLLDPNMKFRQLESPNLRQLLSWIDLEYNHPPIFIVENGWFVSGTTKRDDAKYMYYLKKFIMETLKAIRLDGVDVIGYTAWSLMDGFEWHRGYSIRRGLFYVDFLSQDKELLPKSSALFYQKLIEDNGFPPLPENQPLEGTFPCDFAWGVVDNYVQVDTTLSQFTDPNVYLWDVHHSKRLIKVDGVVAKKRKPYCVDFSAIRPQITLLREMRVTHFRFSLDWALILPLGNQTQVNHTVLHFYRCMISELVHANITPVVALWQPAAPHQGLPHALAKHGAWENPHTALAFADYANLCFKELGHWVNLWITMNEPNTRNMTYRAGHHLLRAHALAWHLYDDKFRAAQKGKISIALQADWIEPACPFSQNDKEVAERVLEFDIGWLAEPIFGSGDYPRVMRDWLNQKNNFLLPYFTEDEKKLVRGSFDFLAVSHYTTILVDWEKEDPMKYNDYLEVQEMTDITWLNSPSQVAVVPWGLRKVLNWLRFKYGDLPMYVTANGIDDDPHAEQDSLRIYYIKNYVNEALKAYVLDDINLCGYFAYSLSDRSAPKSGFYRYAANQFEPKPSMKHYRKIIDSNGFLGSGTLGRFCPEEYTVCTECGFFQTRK
Method: A variety of interaction or binding assays can be used to determine that an agent specifically binds the binary FGFR-Klotho complex, such as the SPR interaction analysis described below. One aspect of the present invention utilizes SPR analysis of FGF23 protein/peptide binding to the binary FGFR-Klotho complex. The SPR analysis involved FGF23 protein/peptide immobilization by amine coupling on flow channels of a chip. Proteins were injected over the chip at a flow rate of 50 μl min^−1, and at the end of each protein injection (180 s), HBS-EP buffer (10 mM HEPES-NaOH, pH 7.4, 150 mM NaCl, 3 mM EDTA, 0.005% (v/v) polysorbate 20; 50 μl min^−1) was flowed over the chip to monitor dissociation for 180 s. The chip surface was then regenerated by injecting 50 μl of 2.0 M NaCl in 10 mM sodium acetate, pH 4.5. […] For each protein injection over a FGF23 protein/peptide chip, the nonspecific responses from the FHF1B control flow channel were subtracted from the responses recorded for the flow channel onto which FGF23 protein/peptide was immobilized. To analyze FGF23 binding to the binary FGFR1c-Klotho complex, FGF23^28-251 was coupled to a chip, and increasing concentrations of 1:1 complex of the ectodomains of FGFR1c and Klotho in HBS-EP buffer were passed over the chip. To measure binding of the C-terminal tail of FGF23 to the binary FGFR1c-Klotho complex, FGF23^180-251 was immobilized on a chip, and increasing concentrations of 1:1 complex of the ectodomains of FGFR1c and Klotho in HBS-EP buffer were passed over the chip. To examine whether the C-terminal tail of FGF23 can compete with full-length FGF23 for binding to the binary FGFR1c-Klotho complex, FGF23^28-251 was immobilized on a chip. Increasing concentrations of FGF23^180-251 were mixed with a fixed concentration of 1:1 complex of the ectodomains of FGFR1c and Klotho in HBS-EP buffer, and the mixtures were passed over the chip. As a control, competition of FGF23 in solution with immobilized FGF23 for binding to the binary FGFR1c-Klotho complex was studied. Increasing concentrations of FGF23^28-251 were mixed with a fixed concentration of 1:1 complex of the ectodomains of FGFR1c and Klotho in HBS-EP buffer, and the mixtures were passed over the FGF23 chip. Competition of the FGF23 C-terminal tail peptide with full-length FGF23 for binding to the binary FGFR1c-Klotho complex was also studied using the “reverse” SPR assay format, where FGF23^180-251 was immobilized on a chip and mixtures of a fixed concentration of 1:1 complex of the ectodomains of FGFR1c and Klotho with increasing concentrations of FGF23^28-251 were passed over the chip. As a control, competition of FGF23 C-terminal tail peptide in solution with immobilized FGF23 C-terminal tail peptide for binding to the binary FGFR1c-Klotho complex was analyzed. Increasing concentrations of FGF23^180-251 were mixed with a fixed concentration of 1:1 complex of the ectodomains of FGFR1c and Klotho in HBS-EP buffer, and the mixtures were passed over the FGF23^180-251 chip. To verify the specificity of the interaction between the FGF23 C-terminal tail and the FGFR1c-Klotho complex, FGF23^28-251 was immobilized on a chip. Increasing concentrations of FGF21^168-209 were mixed with a fixed concentration of 1:1 complex of the ectodomains of FGFR1c and Klotho in HBS-EP buffer, and the mixtures were passed over the chip. In addition, the ability of the FGF23 C-terminal tail peptide to interfere with binary complex formation between βKlotho and either FGF19 or FGF21 was tested, as was its ability to interfere with ternary complex formation between βKlotho, FGFR, and either FGF19 or FGF21. FGF19^23-216 and FGF21^29-209 were immobilized on two flow channels of a chip. FGF23^180-251 and the ectodomain of βKlotho were mixed at a molar ratio of 2:1, and the mixture was injected over the chip. Next, FGF23^180-251 and the 1:1 complex of the ectodomains of FGFR1c and βKlotho were mixed at a molar ratio of 10:1, and the mixture was passed over the FGF19/FGF21 chip. […]

FGFR1c = molecular target: T2, FGFR1c (Homo sapiens, UniProt P11362); assay: SPR: FGFR1c ectodomain passed over immobilized Klotho ectodomain; assay type: binding; conditions: 25° C., HBS-EP buffer, read-out: dissociation constant (KD) of the FGFR1c-Klotho interaction
T2 construct: made in house; host or cells: E. coli
T2 sequence (P11362 142-365): T1 sequence (P11362 142-365)
Method: Surface plasmon resonance (SPR) spectroscopy experiments were performed on a Biacore 2000 instrument (Biacore AB), and FGF23-FGFR1c-Klotho interactions were studied at 25° C. in HBS-EP buffer (10 mM HEPES-NaOH, pH 7.4, 150 mM NaCl, 3 mM EDTA, 0.005% (v/v) polysorbate 20). Proteins were immobilized by amine coupling on flow channels of research grade CM5 chips (Biacore AB). Proteins were injected over a CM5 chip at a flow rate of 50 μl min^−1, and at the end of each protein injection (180 s), HBS-EP buffer (50 μl min^−1) was flowed over the chip to monitor dissociation for 180 s. The chip surface was then regenerated by injecting 50 μl of 2.0 M NaCl in 10 mM sodium acetate, pH 4.5. […] For each protein injection over a Klotho chip, the nonspecific responses from the β-glucuronidase control flow channel were subtracted from the responses recorded for the Klotho flow channel. Similarly, for each protein injection over a FGF chip, the nonspecific responses from the FHF1B control flow channel were subtracted from the responses recorded for the FGF flow channel. […]
To analyze Klotho binding to FGFR1c, Klotho ectodomain was immobilized on a chip (˜29-35 fmole/mm^2 of flow channel). […] Maximal equilibrium responses were plotted against the concentrations of FGFR1c ectodomain (FIG. 1B), and from the fitted saturation binding curve the equilibrium dissociation constant (KD) was calculated. […]

Molecule: FGF21^168-209: 42-amino acid long C-terminal tail of FGF21 (P168 to S209), expressed in E. coli (PGLPPALPEPPGILAPQPPDVGSSDPLSMVGPSQGRSPSYAS; left off: small tags and cut ends) [reference compound]
- inhibition of FGFR1c-Klotho binding to immobilized FGF23^28-251 [1]: failed to inhibit; also recorded: no inhibition

- Kd (FGFR1c): 0.072 µM
B1: Klotho: ectodomain of murine Klotho (A35 to K982) purified from HEK293 culture media (protein)
chain: T1 sequence (O35082 35-982)
modifications: left off: small tags and cut ends
notes: ectodomain of murine Klotho (A35 to K982) purified from HEK293 culture media
